target: IL2 receptors (on the HEK IL-2 reporter cell line) (human) (UniProt P01589); assay: cell-based or functional assay
Sequence (P01589 22-272, chain 1 of 3): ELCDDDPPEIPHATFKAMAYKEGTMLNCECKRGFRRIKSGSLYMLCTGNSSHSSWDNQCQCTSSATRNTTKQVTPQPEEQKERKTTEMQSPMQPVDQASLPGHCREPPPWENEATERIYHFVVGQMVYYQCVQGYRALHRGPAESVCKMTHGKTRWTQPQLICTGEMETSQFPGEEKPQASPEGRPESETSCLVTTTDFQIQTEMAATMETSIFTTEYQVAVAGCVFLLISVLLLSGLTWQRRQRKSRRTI
Sequence (P14784 27-551, chain 2 of 3, further chain): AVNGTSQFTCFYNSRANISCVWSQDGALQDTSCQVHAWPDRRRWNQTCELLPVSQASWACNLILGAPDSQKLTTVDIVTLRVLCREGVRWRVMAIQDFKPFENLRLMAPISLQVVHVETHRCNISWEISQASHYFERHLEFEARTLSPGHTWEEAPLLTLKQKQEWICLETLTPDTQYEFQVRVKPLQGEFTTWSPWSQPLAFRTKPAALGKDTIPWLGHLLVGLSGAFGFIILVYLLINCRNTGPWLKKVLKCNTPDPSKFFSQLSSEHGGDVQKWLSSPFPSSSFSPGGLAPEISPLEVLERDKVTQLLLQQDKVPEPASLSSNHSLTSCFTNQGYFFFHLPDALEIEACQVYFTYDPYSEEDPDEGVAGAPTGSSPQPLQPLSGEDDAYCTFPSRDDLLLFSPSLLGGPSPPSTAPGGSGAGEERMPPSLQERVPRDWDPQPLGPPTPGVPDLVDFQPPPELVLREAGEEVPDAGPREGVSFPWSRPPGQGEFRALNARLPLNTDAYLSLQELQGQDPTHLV
Sequence (P31785 23-369, chain 3 of 3, further chain): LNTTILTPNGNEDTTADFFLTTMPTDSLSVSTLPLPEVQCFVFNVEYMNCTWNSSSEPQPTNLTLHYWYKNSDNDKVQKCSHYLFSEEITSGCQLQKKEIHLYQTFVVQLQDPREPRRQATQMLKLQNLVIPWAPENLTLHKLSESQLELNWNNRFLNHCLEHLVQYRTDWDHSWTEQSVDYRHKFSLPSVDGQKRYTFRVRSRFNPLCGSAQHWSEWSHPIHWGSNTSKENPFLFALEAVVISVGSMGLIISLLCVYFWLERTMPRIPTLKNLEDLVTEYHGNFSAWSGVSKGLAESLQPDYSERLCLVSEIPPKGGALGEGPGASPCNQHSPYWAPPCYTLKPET

| Substance | IL-2 EC50 (nM) (approx.); SEAP induction in the HEK IL-2 reporter cell line, OD |
| --- | --- |
| Cas9-2xNLS-IL2(superkine) (from UniProt P60568 21-153) | 0.87 |
| Cas9-2xNLS-mouse WT IL2 (from UniProt P04351 21-169) | 0.34 |
| IL2(SK)-SpyTag (ligand) | 0.037 |
| SpyCatcher-Cas9(WT)-2xNLS:Spytag-IL2(SK) conjugate (from UniProt Q99ZW2 2-1368) | 0.0095 |
| recombinant mouse IL-2 (from UniProt P04351 21-169) (ligand) | 0.0057 |

Reference: patent US20220010337A1
